Target: Cy5UbPRG fluorescent activity-based probe (UniProt P0CG48)

Which percent of DUB2 reacted with the probe does the source give for recombinant DUB2 (enzyme) here?
The percent of DUB2 reacted with the probe was 85%.
